In the assay the target is GFP-Rab13-2 (N. benthamiana). Nature of the assay: co-IP.

Consider “REP-3xFLAG (Rab escort protein 1) (natural protein)”, for which the level of binding (α-FLAG/α-GFP) with RFP-Pc12 expressed is 1.3.

Values taken from publication doi:10.1101/2023.12.15.571945.
